Consider one substance from PMC4188031.

Holding throughout (assay): SPR (ProteOn XPR36, GLC chip), co-injection mode with pH shift
Settings in all cases: pH 7.4; 25°C (stated for the immobilisation step; not restated for the binding runs); 150 mM NaCl (plus 20 mM Na-phosphate); PBS-TE: 20 mM Na-phosphate; association at pH 6.0, dissociation at pH 7.4

Experiment [1] deals with B21M anti-RSV IgG1 N434A N434A (EU numbering) (UniProt P01857).
Experiment [2] has as its target B21M anti-RSV IgG1 N434Y N434Y (EU numbering) (UniProt P01857).
The target in experiment [3] is B21M anti-RSV IgG1, wild-type Fc (mAb WT) (UniProt P01857).

As to neonatal Fc receptor (rat FcRn, rFcRn), the figures for the off-rate (koff) after pH shift 6.0 to 7.4 in experiment [1], in experiment [2] and in experiment [3] were 0.09 1/s, 0.02 1/s and 0.07 1/s, respectively.
